The values below come from patent US20240277770A1 (Genentech, published 2024).

In one assay the target is T1, HLA-C*05:01 (human).
T1 construct: whole, on cells; MHC class I on a monoallelic cell line
The assay can be described thus: HLA-I IP (W6/32) and targeted MS of monoallelic HMy2.C1R cells expressing the polyantigen cassette.
For the molecule CNTTARAFAVV, the binding result is recorded as “binds”.

Regarding STDVGFCTL, the binding result is “binds”.

Take GADGVGKSAL: the binding result is “binds”.

For the molecule GRNSFEVCV, the binding result was “binds”.

Turning to IGDFGLATM, the binding result is reported as “binds”.

In another assay the target is T2, HLA-A*11:01 (human).
T2 construct: whole, on cells; MHC class I on a monoallelic cell line
The assay is described as above.
Turning to VVVGAAGVGK, the binding result is listed as “binds”.

Regarding VVVGADGVGK, the binding result is on record as “binds”.

Regarding ASGAFGTVYK, the binding result was “binds”.

Turning to VVVGAVGVGK, the binding result is “binds”.

With VVVGASGVGK, the binding result is “binds”.

For VVVGARGVGK, the binding result is “binds”.

Turning to VVVGAGCVGK, the binding result is recorded as “binds”.

For the molecule SCMGGMNQR, the binding result is reported as “binds”.

Turning to VVGADGVGK, the binding result is reported as “binds”.

For VVGAGDVGK, the binding result is listed as “binds”.

VVGAGCVGK: the binding result is reported as “binds”.

For the molecule VVGASGVGK, the binding result was “binds”.

For the molecule VVGACGVGK, the binding result is recorded as “binds”.

Take VVGAAGVGK: the binding result was “binds”.

Consider STRDPLSEITK, for which the binding result is “binds”.

Regarding ASGAFGTVY, the binding result was “binds”.

As for LASGAFGTVYK, the binding result is “binds”.

Another assay addresses T3, HLA-C*07:01 (human).
T3 construct: whole, on cells; MHC class I on a monoallelic cell line
The description is as above.
EKSRWSGSHQF: the binding result is on record as “binds”.

A further assay has as its target T4, HLA-A*01:01 (human).
T4 construct: whole, on cells; MHC class I on a monoallelic cell line
The description is as above.
YTDVSNMSHLA: the binding result was “binds”.

LDTAGKEEY: the binding result is reported as “binds”.

With ILDTAGKEEY, the binding result is listed as “binds”.

With ILDTAGREEY, the binding result is given as “binds”.

As to YTDVSNMSH, the binding result was “binds”.

Turning to DTAGREEY, the binding result is “binds”.

In a further assay the target is T5, HLA-B*08:01 (human).
T5 construct: whole, on cells; MHC class I on a monoallelic cell line
The assay is described as above.
As for FMKQMNDAL, the binding result is recorded as “binds”.

Consider ERCPHRPIL, for which the binding result is “binds”.

Regarding SKRNSLAL, the binding result is reported as “binds”.

Consider MIKRSKRNSL, for which the binding result is “binds”.

With AGREEYSAM, the binding result is on record as “binds”.

With FKKIKVLAS, the binding result is “binds”.

For DGVGKSAL, the binding result is given as “binds”.

FGRAKLLGA: the binding result is “binds”.

For WVKPIIIGC, the binding result is listed as “binds”.

Consider FGLARYIM, for which the binding result was “binds”.

As to KMRRKMSP, the binding result is “binds”.

The target in another assay is T6, HLA-A*03:01 (human).
T6 construct: whole, on cells; MHC class I on a monoallelic cell line
The description is as above.
Turning to VVVGAAGVGK, the binding result is reported as “binds”.

As to VVVGADGVGK, the binding result is given as “binds”.

For the molecule ASGAFGTVYK, the binding result is “binds”.

On to VVVGAVGVGK, for which the binding result was “binds”.

For VVVGASGVGK, the binding result was “binds”.

For the molecule VVVGARGVGK, the binding result is reported as “binds”.

As to VVGAGDVGK, the binding result is recorded as “binds”.

Turning to VVGASGVGK, the binding result is listed as “binds”.

Regarding KITDFGRAK, the binding result is recorded as “binds”.

Another assay addresses T7, HLA-C*06:02 (human).
T7 construct: whole, on cells; MHC class I on a monoallelic cell line
The description is as above.
GRNSFEVHV: the binding result is on record as “binds”.

The next assay deals with T8, HLA-B*07:02 (human).
T8 construct: whole, on cells; MHC class I on a monoallelic cell line
The assay is described as above.
As for RPIPIKYKAM, the binding result is given as “binds”.

In the case of SPNGTIQNIL, the binding result is “binds”.

Turning to KPIIIGCH, the binding result is listed as “binds”.

As for RSKRNSLAL, the binding result is listed as “binds”.

For GARGVGKSA, the binding result is “binds”.

MPFGSLLDY: the binding result is on record as “binds”.

With GARGVGKSAL, the binding result is given as “binds”.

In the case of CPHRPILQA, the binding result is “binds”.

Another assay deals with T9, HLA-B*35:01 (human).
T9 construct: whole, on cells; MHC class I on a monoallelic cell line
Described as above.
Turning to VKPIIIGHHAY, the binding result is “binds”.

On to IIIGGHAY, for which the binding result is “binds”.

For IIIGHHAY, the binding result is “binds”.

Regarding PIIIGHHAY, the binding result is given as “binds”.

Turning to MPFGSLLDY, the binding result is given as “binds”.

The next assay addresses T2, HLA-A*11:01. The assay can be described thus: HLA-I IP and targeted MS with hipMHC standards, A*11:01 monoallelic C1R cells (FIG. 12B).
Consider VVVGAGGVGK (also called KRAS G12 wild type 10-mer), for which the binding result is listed as “binds”.

Take VVGAGGVGK (also called KRAS G12 wild type 9-mer): the binding result is reported as “binds”.
